Assays:
[1] = tested on: goat IgG; experiment: IdeS species restrictions: goat IgG; type: biochemical
[2] = IdeS activity towards peptides: Z-LVG-CHN2; type: biochemical; conditions: excess IdeS
[3] = target: aprotinin (Bos taurus, UniProt P00974); experiment: IdeS cleavage of other human proteins: aprotinin; type: biochemical
[4] = tested on: different subclasses of IgG; experiment: IdeS activity against the subclasses of IgG; type: biochemical, human
[5] = tested on: human IgG; experiment: IdeS cleavage assay of Ig classes: IgG; type: biochemical
Experimental: (§1) For standard IdeS activity assays, bacteria cultures were grown to OD620=0.4. Bacteria were pelleted by centrifugation and supernatants were sterile-filtered through a 0.22 μm membrane (Millipore) prior to use. For activity assays, […] of supernatant were mixed with 5 μl of IgG (10 mg/ml, Sigma) and the volume was adjusted with PBS to 100 μl. For screening of IdeS activity in different S. progenes strains, E64 was added to a final concentration of 40 μM. The mixtures were incubated at 37° C. for 30 min and samples were analyzed by 12% SDS-PAGE. For cleavage assays of different classes of Ig, purified IdeS (0.3 μg/ml) was incubated with 3 μg Ig for 2 h at 37° C., and analyzed by 12% SDS-PAGE analysis.

[6] = target: α 1-antitrypsin (Homo sapiens, UniProt P01009); experiment: IdeS cleavage of other human proteins: α 1-antitrypsin; type: biochemical
[7] = target: lactoferrin (Homo sapiens, UniProt P02788); experiment: IdeS cleavage of other human proteins: lactoferrin; type: biochemical
[8] = target: T1, cystatin C (Mus musculus, UniProt P21460); experiment: IdeS incubation with mouse cystatin C; type: biochemical
T1 sequence (P21460 21-140): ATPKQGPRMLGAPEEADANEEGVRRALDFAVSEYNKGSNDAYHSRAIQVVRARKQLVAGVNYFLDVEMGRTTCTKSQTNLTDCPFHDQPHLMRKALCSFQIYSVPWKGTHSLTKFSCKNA

[9] = target: T2, cystatin C (Rattus norvegicus, UniProt P14841); experiment: IdeS incubation with rat cystatin C; type: biochemical
T2 sequence (P14841 21-140): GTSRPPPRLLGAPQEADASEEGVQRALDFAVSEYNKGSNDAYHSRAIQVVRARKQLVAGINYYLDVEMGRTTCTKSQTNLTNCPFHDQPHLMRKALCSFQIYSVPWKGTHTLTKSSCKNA

[10] = tested on: IgG2; experiment: IdeS activity against IgG2; type: biochemical, human
[11] = tested on: human IgE; experiment: IdeS cleavage assay of Ig classes: IgE; type: biochemical; conditions: purified IdeS, 2 h at 37° C.
Experimental: as §1

[12] = target: T3, antimicrobial peptide LL-37 (Homo sapiens, UniProt P49913); experiment: IdeS activity towards peptides: LL-37; type: biochemical
T3 construct: antimicrobial peptide LL-37
T3 sequence (P49913 134-170 limits assumed): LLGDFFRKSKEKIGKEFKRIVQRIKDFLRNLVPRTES

[13] = target: T4, fibrinogen (Homo sapiens, UniProt P02671+P02675+P02679); experiment: IdeS cleavage of other human proteins: fibrinogen; type: biochemical
T4 sequence (P02671 20-629 limits assumed): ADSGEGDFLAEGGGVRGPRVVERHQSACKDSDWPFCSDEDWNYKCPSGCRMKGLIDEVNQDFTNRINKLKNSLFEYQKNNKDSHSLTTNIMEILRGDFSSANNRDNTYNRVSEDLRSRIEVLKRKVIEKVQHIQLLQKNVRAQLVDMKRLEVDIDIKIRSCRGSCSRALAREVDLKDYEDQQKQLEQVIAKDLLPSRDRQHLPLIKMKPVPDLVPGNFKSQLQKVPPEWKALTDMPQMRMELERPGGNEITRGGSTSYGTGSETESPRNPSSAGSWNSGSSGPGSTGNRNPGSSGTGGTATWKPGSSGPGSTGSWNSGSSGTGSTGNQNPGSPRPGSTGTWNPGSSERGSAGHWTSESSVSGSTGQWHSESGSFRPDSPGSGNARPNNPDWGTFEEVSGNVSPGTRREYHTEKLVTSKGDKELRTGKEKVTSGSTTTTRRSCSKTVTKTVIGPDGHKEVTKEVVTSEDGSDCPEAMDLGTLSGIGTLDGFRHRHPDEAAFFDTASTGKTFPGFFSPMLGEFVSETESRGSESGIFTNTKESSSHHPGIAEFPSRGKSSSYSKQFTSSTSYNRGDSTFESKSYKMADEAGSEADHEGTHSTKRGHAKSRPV
T4 sequence (P02675 31-491): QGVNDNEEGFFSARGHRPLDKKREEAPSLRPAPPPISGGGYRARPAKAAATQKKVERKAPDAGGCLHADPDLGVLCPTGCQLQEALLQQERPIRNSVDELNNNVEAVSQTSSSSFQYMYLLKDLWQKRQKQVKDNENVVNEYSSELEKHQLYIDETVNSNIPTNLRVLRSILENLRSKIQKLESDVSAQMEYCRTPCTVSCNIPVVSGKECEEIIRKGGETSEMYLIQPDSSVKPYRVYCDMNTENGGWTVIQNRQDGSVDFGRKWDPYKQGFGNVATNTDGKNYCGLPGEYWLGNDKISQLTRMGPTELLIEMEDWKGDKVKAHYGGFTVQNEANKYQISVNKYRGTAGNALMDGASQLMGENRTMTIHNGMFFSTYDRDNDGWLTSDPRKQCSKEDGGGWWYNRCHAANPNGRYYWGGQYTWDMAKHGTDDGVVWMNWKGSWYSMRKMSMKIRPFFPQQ
T4 sequence (P02679 27-453): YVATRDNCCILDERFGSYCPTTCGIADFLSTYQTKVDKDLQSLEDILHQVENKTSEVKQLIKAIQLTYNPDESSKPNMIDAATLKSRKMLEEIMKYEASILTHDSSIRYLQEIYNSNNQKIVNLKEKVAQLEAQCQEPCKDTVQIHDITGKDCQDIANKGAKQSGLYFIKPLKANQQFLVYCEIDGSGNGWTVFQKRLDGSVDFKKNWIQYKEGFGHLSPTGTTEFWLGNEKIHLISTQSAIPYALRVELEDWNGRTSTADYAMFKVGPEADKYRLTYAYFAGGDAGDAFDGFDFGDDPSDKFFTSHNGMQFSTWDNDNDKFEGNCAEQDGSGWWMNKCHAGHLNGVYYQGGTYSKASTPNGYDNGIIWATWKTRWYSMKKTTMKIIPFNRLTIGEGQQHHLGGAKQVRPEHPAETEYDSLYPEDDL

[14] = target: T5, cystatin C (Gallus gallus, UniProt P01038); experiment: IdeS incubation with chicken cystatin C; type: biochemical
T5 sequence (P01038 24-139): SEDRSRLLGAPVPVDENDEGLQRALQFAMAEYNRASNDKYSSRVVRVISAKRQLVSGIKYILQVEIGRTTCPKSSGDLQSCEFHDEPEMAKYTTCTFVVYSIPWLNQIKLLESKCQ

[15] = tested on: IgG bound to AP1 bacteria; experiment: IdeS cleavage of IgG bound to S. pyogenes bacterial surface; type: cell-based, human; conditions: AP1 bacteria after absorption of non-immune or immune plasma

α 1-antitrypsin, sequence (P01009 25-418): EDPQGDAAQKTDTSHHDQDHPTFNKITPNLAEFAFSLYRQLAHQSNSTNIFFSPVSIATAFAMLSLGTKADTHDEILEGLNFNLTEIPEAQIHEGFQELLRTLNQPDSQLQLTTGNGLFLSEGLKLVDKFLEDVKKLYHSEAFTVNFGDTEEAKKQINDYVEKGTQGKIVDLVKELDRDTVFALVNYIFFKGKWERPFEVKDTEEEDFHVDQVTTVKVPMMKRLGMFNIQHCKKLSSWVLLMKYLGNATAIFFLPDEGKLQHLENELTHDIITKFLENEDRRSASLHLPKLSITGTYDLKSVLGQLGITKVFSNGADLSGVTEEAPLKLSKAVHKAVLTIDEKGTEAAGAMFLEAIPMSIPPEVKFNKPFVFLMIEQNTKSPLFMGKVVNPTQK
lactoferrin, sequence (P02788 20-710): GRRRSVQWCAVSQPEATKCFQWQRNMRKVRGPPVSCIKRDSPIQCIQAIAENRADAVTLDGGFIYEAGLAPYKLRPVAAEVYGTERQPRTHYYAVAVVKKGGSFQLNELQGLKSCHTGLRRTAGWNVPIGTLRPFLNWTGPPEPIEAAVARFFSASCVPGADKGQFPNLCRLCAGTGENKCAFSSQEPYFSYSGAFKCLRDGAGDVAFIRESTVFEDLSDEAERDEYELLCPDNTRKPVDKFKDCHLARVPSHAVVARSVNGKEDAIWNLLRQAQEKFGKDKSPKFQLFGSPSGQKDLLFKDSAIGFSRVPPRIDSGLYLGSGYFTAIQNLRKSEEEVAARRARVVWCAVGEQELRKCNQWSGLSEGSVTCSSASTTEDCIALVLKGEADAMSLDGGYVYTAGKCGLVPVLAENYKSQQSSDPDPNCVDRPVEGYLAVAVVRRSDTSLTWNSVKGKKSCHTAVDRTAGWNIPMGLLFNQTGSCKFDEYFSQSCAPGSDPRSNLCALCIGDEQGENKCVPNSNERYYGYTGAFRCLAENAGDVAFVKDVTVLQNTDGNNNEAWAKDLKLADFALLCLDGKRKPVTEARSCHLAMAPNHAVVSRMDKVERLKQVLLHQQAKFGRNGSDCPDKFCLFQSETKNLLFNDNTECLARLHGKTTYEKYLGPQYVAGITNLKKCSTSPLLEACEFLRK

B1: IdeS: new extracellular cysteine protease produced by S. pyogenes, highly specific for IgG; SEQ ID NO: 1 (protein)
chain: DSFSANQEIRYSEVTPYHVTSVWTKGVTPPANFTQGEDVFHAPYVANQGWYDITKTFNGKDDLLCGAATAGNMLHWWFDQNKDQIKRYLEEHPEKQKINFNGEQMFDVKEAIDTKNHQLDSKLFEYFKEKAFPYLSTKHLGVFPDHVIDMFINGYRLSLTNHGPTPVKEGSKDPRGGIFDAVFTRGDQSKLLTSRHDFKEKNLKEISDLIKKELTEGKALGLSHTYANVRINHVINLWGADFDSNGNLKAIYVTDSDSNASIGMKKYFVGVNSAGKVAISAKEIKEDNIGAQVLGLFTLSTGQDSWNQTN
modifications: S. Pyogenes
cleavage of goat IgG [1]: cleave
cleavage of Z-LVG-CHN2 [2]: Neither was the synthetic peptide Z-LVG-CHN2, which inhibits IdeS activity, cleaved
cleavage products, aprotinin [3]: No cleavage products could be detected
digestion of the different subclasses of IgG [4]: all were susceptible for IdeS digestion
degradation of human IgG ([5]; purified IdeS, 2 h at 37° C.): only IgG was degraded
cleavage of human IgG ([5]; species restrictions): cleave
cleavage products, α 1-antitrypsin [6]: No cleavage products could be detected
cleavage products, lactoferrin [7]: No cleavage products could be detected
cleavage products, cystatin C from mouse [8]: No cleavage products could be observed
cleavage products, cystatin C from rat [9]: No cleavage products could be observed
digestion of IgG2 compared to the other subclasses [10]: less efficiently digested
degradation of human IgE [11]: only IgG was degraded
degradation of LL-37 [12]: did not reveal any degradation
cleavage products, fibrinogen [13]: No cleavage products could be detected
cleavage products, cystatin C from chicken [14]: No cleavage products could be observed
cleavage of IgG bound to the bacterial surface (31 kDa band) [15]: in both cases IgG was cleaved
